Target: HLA-A*02:01 (Homo sapiens, UniProt P04439, D140Y/D185E/D98H/E176V/E277Q/G131W/G231S/I119V/I121R/I166T/I218V/L300P/L318F/N151K/N90K/P208A/P217A/Q86G/Q94H/R138H/R169H/T345S)
Test: MHC binding assay (UV-ligand exchange, beta2m ELISA)
Conditions: binding to HLA-A*02:01 ranged by peptide exchange yield (UV-ligand exchange, β2m ELISA)
Outline: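 Stabilised complexes were quantified via their β2m light chain: 100-fold-diluted monomers bound to streptavidin plates, then HRP anti-β2m at 2 ug/ml for 1 h at 37° C., TMB read at 450 nm. The value is the yield of UV-induced exchange of a photocleavable peptide for the candidate.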

Peptide exchange	Substance
“++” (≥20% = ++)	242 (AIAYILQGV; listed as Homo sapiens) [compound 242]
“+++” (≥50 = +++)	243 (LLLNELPSV; listed as Homo sapiens) [compound 243]
“+++” (≥50 = +++)	244 (SLFGGTEITI; listed as Homo sapiens) [compound 244]
“+++” (≥50 = +++)	245 (SMIDDLLGV; listed as Homo sapiens) [compound 245]
“+++” (≥50 = +++)	246 (LLWEVVSQL; listed as Homo sapiens) [compound 246]
“+++” (≥50 = +++)	248 (FLFPNQYVDV; listed as Homo sapiens) [compound 248]
“+++” (≥50 = +++)	249 (LLDGFLVNV; listed as Homo sapiens) [compound 249]
“+++” (≥50 = +++)	250 (ALSEEGLLVYL; listed as Homo sapiens) [compound 250]
“++” (≥20% = ++)	251 (ALYTGFSILV; listed as Homo sapiens) [compound 251]
“+++” (≥50 = +++)	252 (LLIGTDVSL; listed as Homo sapiens) [compound 252]
“++” (≥20% = ++)	253 (GLDAATATV; listed as Homo sapiens) [compound 253]
“+++” (≥50 = +++)	254 (TLLAFIMEL; listed as Homo sapiens) [compound 254]
“+++” (≥50 = +++)	255 (VLASYNLTV; listed as Homo sapiens) [compound 255]
“+++” (≥50 = +++)	256 (FLPPEHTIVYI; listed as Homo sapiens) [compound 256]
“+++” (≥50 = +++)	257 (SIFSAFLSV; listed as Homo sapiens) [compound 257]
“++” (≥20% = ++)	258 (ELAERVPAI; listed as Homo sapiens) [compound 258]
“++” (≥20% = ++)	261 (YVLEFLEEI; listed as Homo sapiens) [compound 261]
“+++” (≥50 = +++)	262 (LLWGDLIWL; listed as Homo sapiens) [compound 262]
“+++” (≥50 = +++)	263 (LLVSNLDFGV; listed as Homo sapiens) [compound 263]
“+++” (≥50 = +++)	264 (SLQEQLHSV; listed as Homo sapiens) [compound 264]

Peptide exchange	Substance
“++” (≥20% = ++)	265 (LLFGGTKTV; listed as Homo sapiens) [compound 265]
“+++” (≥50 = +++)	266 (KITDTLIHL; listed as Homo sapiens) [compound 266]
“+++” (≥50 = +++)	267 (ALQDFLLSV; listed as Homo sapiens) [compound 267]
“++” (≥20% = ++)	269 (RVLEVGALQAV; listed as Homo sapiens) [compound 269]
“++” (≥20% = ++)	270 (LLLDEEGTFSL; listed as Homo sapiens) [compound 270]
“+++” (≥50 = +++)	271 (LVYPLELYPA; listed as Homo sapiens) [compound 271]
“+++” (≥50 = +++)	272 (ALGNTVPAV; listed as Homo sapiens) [compound 272]
“++” (≥20% = ++)	273 (NLFQSVREV; listed as Homo sapiens) [compound 273]
“++” (≥20% = ++)	274 (SLLFSLFEA; listed as Homo sapiens) [compound 274]
“++” (≥20% = ++)	275 (YLVYILNEL; listed as Homo sapiens) [compound 275]
“+++” (≥50 = +++)	276 (ALFTFSPLTV; listed as Homo sapiens) [compound 276]
“++” (≥20% = ++)	277 (LLPPLESLATV; listed as Homo sapiens) [compound 277]
“++” (≥20% = ++)	278 (QLLDVVLTI; listed as Homo sapiens) [compound 278]
“++” (≥20% = ++)	279 (ALWGGTQPLL; listed as Homo sapiens) [compound 279]
“+++” (≥50 = +++)	280 (VLPDPEVLEAV; listed as Homo sapiens) [compound 280]
“+++” (≥50 = +++)	281 (ILRESTEEL; listed as Homo sapiens) [compound 281]
“+++” (≥50 = +++)	282 (LLADVVPTT; listed as Homo sapiens) [compound 282]
“+++” (≥50 = +++)	283 (ALYIGDGYVIHLA; listed as Homo sapiens) [compound 283]
“+++” (≥50 = +++)	284 (ILLSQTTGV; listed as Homo sapiens) [compound 284]
“+++” (≥50 = +++)	285 (QLLHVGVTV; listed as Homo sapiens) [compound 285]

Peptide exchange	Substance
“+++” (≥50 = +++)	286 (YLFPGIPEL; listed as Homo sapiens) [compound 286]
“+++” (≥50 = +++)	287 (FLNEFFLNV; listed as Homo sapiens) [compound 287]
“+++” (≥50 = +++)	288 (NLINEINGV; listed as Homo sapiens) [compound 288]
“++++” (≥75% = ++++)	289 (VLLEIEDLQV; listed as Homo sapiens) [compound 289]
“+++” (≥50 = +++)	295 (VLDRESPNV; listed as Homo sapiens) [compound 295]
“+++” (≥50 = +++)	296 (FMEGAIIYV; listed as Homo sapiens) [compound 296]
“+++” (≥50 = +++)	297 (VLADIELAQA; listed as Homo sapiens) [compound 297]
“+++” (≥50 = +++)	298 (VMITKLVEV; listed as Homo sapiens) [compound 298]
“+++” (≥50 = +++)	299 (YLLETSGNL; listed as Homo sapiens) [compound 299]
“+++” (≥50 = +++)	300 (ALLGQTFSL; listed as Homo sapiens) [compound 300]
“+++” (≥50 = +++)	301 (FLVEDLVDSL; listed as Homo sapiens) [compound 301]
“+++” (≥50 = +++)	302 (ALLQEGEVYSA; listed as Homo sapiens) [compound 302]
“++++” (≥75% = ++++)	303 (AILPQLFMV; listed as Homo sapiens) [compound 303]
“+++” (≥50 = +++)	304 (MTLGQIYYL; listed as Homo sapiens) [compound 304]
“++++” (≥75% = ++++)	305 (SIANFSEFYV; listed as Homo sapiens) [compound 305]
“+++” (≥50 = +++)	306 (ALVNVQIPL; listed as Homo sapiens) [compound 306]
“+++” (≥50 = +++)	307 (ALPVSLPQI; listed as Homo sapiens) [compound 307]
“+++” (≥50 = +++)	308 (SQYSGQLHEV; listed as Homo sapiens) [compound 308]
“+++” (≥50 = +++)	309 (GLFDGVPTTA; listed as Homo sapiens) [compound 309]
